Consider 25 molecules from patent US20200121803A1 (published 2020).

Test [1] deals with T1, Human CD98, endogenous on HCC38, Molt-4 and Jurkat human cancer cells (human).
T1 chain: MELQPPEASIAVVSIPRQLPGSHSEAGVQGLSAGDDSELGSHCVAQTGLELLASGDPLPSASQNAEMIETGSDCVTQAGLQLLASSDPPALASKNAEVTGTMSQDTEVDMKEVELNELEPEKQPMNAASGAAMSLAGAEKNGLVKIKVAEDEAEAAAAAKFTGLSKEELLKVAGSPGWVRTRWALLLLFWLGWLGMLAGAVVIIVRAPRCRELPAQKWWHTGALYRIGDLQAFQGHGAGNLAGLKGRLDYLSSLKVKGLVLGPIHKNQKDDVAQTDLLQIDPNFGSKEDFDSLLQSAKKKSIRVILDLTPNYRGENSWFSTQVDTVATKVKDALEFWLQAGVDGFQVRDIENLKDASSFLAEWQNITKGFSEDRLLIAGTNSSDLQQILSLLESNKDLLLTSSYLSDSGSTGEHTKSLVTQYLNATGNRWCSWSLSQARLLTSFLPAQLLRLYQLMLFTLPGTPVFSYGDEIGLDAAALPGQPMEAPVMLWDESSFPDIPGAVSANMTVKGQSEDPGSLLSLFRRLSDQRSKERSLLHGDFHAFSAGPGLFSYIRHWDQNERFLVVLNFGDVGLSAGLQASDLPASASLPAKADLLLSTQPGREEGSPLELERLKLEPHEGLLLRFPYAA
As to the kind of experiment: cell-based or functional assay.

For test [2], the target named is T2, human CD98, endogenously expressed on Molt-4 human acute lymphoblastic leukemia cells (human).
T2 chain: T1 chain
As to the kind of experiment: cell-based or functional assay.

Substitutions are numbered along the chain they refer to.

B1: Ab1-CZ (Ab1 conjugated to Bcl-xL inhibitor synthon CZ) (antibody, V domains shown)
VH: EVKLVESGGGLVQPGGSLRLSCATSGFTFTDYYMSWVRQPPGKALEWLGFIRNPANVYTTEYSASVKGRFTISRDNSQSILYLQMNTLRAEDSATYYCARASYGNSEGWFAYWGQGTLVTVSA
VL: DIVMSQSPSSLAVSVGEKVTMSCKSSQNLLYNNNQKNYLAWYQQKPGQSPKLLIYWASTRESGVPDRFTGSGSGTDFTLTISSVKAEDLAVYYCQQYYSYPRTFGGGTKLEIK
As to B1, in test [1], the “ADC potency, IC50 (nM), HCC38 growth inhibition” value came out at 0.998 nM; the “ADC potency, IC50 (nM), Jurkat growth inhibition” value amounted to 0.05 nM; the “ADC potency, IC50 (nM), Molt-4 growth inhibition” value was 0.053 nM.

B2: Ab4-CZ (Ab4 conjugated to Bcl-xL inhibitor synthon CZ) (antibody, V domains shown)
VH: B1 VH with A23T, P54K, N56T, V57I
VL: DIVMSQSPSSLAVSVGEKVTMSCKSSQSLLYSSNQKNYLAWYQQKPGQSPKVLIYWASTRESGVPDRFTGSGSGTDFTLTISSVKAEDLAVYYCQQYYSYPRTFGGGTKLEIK
With B2, in test [1], the “ADC potency, IC50 (nM), HCC38 growth inhibition” value was 0.879 nM; the “ADC potency, IC50 (nM), Jurkat growth inhibition” value is 0.371 nM; the “ADC potency, IC50 (nM), Molt-4 growth inhibition” value worked out at 0.127 nM.

B3: CD98 (CL-huAb104)-AAA (antibody, human IgG1, kappa, L234A L235A, V domains shown)
VH: EVQLVESGGGLVQPGGSLRLSCATSGFTFIDYYMSWVRQAPGKGLEWLGFIRNKAYGYTTEYSASVKGRFTISRDNSKSILYLQMNSLKTEDTAVYYCTRDRPAWFVYWGQGTLVTVSS
VL: DIVMTQTPLSLPVTPGEPASISCKSSQSLLYSSNQKNYLAWYLQKPGQSPQLLIYWASTRESGVPDRFSGSGSGTDFTLKISRVEAEDVGVYYCQQYYSYPYTFGGGTKVEIKR
modifications: synthon AAA on reduced interchain cysteines (sites not given)
For the molecule B3, in test [2], the “% Cell Viability at 50 nM” value is 2.2% and the “Molt4 IC50” value stood at 0.04 nM.

B4: CD98 (CL-huAb108)-AAD (antibody, human IgG1, kappa, L234A L235A, V domains shown)
VH: EVQLVQSGAEVKKPGASVKVSCKASGFTFSDYTMAWVRQAPGQGLEWVATIIYSGRGTYYRDAVKGRFTITRDNSTSTLYLELSSLRSEDTAVYYCARQSDDTYYYWGYFDYWGQGTMVTVSS
VL: B3 VL with S22N, Y31F, S33G, E61Q, V91I, S99D, Y100V, G106Q, V110L
modifications: synthon AAD on reduced interchain cysteines (sites not given)
For the molecule B4, in test [2], the “% Cell Viability at 50 nM” value amounted to 1.8% and the “Molt4 IC50” value was found to be 0.091 nM.

B5: CD98 (CL-huAb102)-ZT (antibody, human IgG1, kappa, L234A L235A, V domains shown)
VH: B3 VH with Y56N, G57R
VL: B3 VL
modifications: synthon ZT on reduced interchain cysteines (sites not given)
On to B5, for which, in test [2], the “% Cell Viability at 50 nM” value was 3.4% and the “Molt4 IC50” value was found to be 0.04 nM.

B6: CD98 (CL-huAb104)-ZZ (antibody, human IgG1, kappa, L234A L235A, V domains shown)
VH: B3 VH
VL: B3 VL
modifications: synthon ZZ on reduced interchain cysteines (sites not given)
B6: in test [2], the “% Cell Viability at 50 nM” value was determined as 6.5% and the “Molt4 IC50” value was determined as 0.061 nM.

B7: CD98 (CL-huAb108)-ZT (antibody, human IgG1, kappa, L234A L235A, V domains shown)
VH: B4 VH
VL: B3 VL with S22N, Y31F, S33G, E61Q, V91I, S99D, Y100V, G106Q, V110L
modifications: synthon ZT on reduced interchain cysteines (sites not given)
For the molecule B7, in test [2], the “% Cell Viability at 50 nM” value was found to be 4.5% and the “Molt4 IC50” value is 0.144 nM.

B8: CD98 (CL-huAb104)-CZ (antibody, human IgG1, kappa, L234A L235A, V domains shown)
VH: B3 VH
VL: B3 VL
modifications: synthon CZ on reduced interchain cysteines (sites not given)
Take B8: in test [2], the “% Cell Viability at 50 nM” value came to 0.9% and the “Molt4 IC50” value is 0.023 nM.

B9: CD98 (CL-huAb104)-ZT (antibody, human IgG1, kappa, L234A L235A, V domains shown)
VH: B3 VH
VL: B3 VL
modifications: synthon ZT on reduced interchain cysteines (sites not given)
On to B9, for which, in test [2], the “% Cell Viability at 50 nM” value amounted to 3.3% and the “Molt4 IC50” value worked out at 0.042 nM.

B10: CD98 (CL-huAb102)-WD (antibody, human IgG1, kappa, L234A L235A, V domains shown)
VH: B3 VH with Y56N, G57R
VL: B3 VL
modifications: synthon WD on reduced interchain cysteines (sites not given)
On to B10, for which, in test [2], the “% Cell Viability at 50 nM” value was 14.3% and the “Molt4 IC50” value was 0.109 nM.

B11: CD98 (CL-huAb108)-CZ (antibody, human IgG1, kappa, L234A L235A, V domains shown)
VH: B4 VH
VL: B3 VL with S22N, Y31F, S33G, E61Q, V91I, S99D, Y100V, G106Q, V110L
modifications: synthon CZ on reduced interchain cysteines (sites not given)
Turning to B11, in test [2], the “% Cell Viability at 50 nM” value is 1.1% and the “Molt4 IC50” value was determined as 0.068 nM.

B12: CD98 (CL-huAb104)-WD (antibody, human IgG1, kappa, L234A L235A, V domains shown)
VH: B3 VH
VL: B3 VL
modifications: synthon WD on reduced interchain cysteines (sites not given)
Consider B12, for which, in test [2], the “% Cell Viability at 50 nM” value was 16.4% and the “Molt4 IC50” value came to 0.067 nM.

B13: CD98 (CL-huAb110)- LB (antibody, human IgG1, kappa, L234A L235A, V domains shown)
VH: B4 VH with S54D, G55A
VL: B3 VL with S22N, Y31F, S33G, E61Q, V91I, Y100S, G106Q, V110L
modifications: synthon LB on reduced interchain cysteines (sites not given)
Consider B13, for which, in test [2], the “% Cell Viability at 50 nM” value was found to be 1.9% and the “Molt4 IC50” value was 0.208 nM.

B14: CD98 (CL-huAb104)-AAD (antibody, human IgG1, kappa, L234A L235A, V domains shown)
VH: B3 VH
VL: B3 VL
modifications: synthon AAD on reduced interchain cysteines (sites not given)
B14: in test [2], the “% Cell Viability at 50 nM” value turned out to be 2.5% and the “Molt4 IC50” value came out at 0.028 nM.

B15: CD98 (CL-huAb102)-ZZ (antibody, human IgG1, kappa, L234A L235A, V domains shown)
VH: B3 VH with Y56N, G57R
VL: B3 VL
modifications: synthon ZZ on reduced interchain cysteines (sites not given)
For the molecule B15, in test [2], the “% Cell Viability at 50 nM” value worked out at 6.3% and the “Molt4 IC50” value was 0.072 nM.

B16: CD98 (CL-huAb102)-CZ (antibody, human IgG1, kappa, L234A L235A, V domains shown)
VH: B3 VH with Y56N, G57R
VL: B3 VL
modifications: synthon CZ on reduced interchain cysteines (sites not given)
Take B16: in test [2], the “% Cell Viability at 50 nM” value came to 1% and the “Molt4 IC50” value is 0.015 nM.

B17: CD98 (CL-huAb110)-ZT (antibody, human IgG1, kappa, L234A L235A, V domains shown)
VH: B4 VH with S54D, G55A
VL: B3 VL with S22N, Y31F, S33G, E61Q, V91I, Y100S, G106Q, V110L
modifications: synthon ZT on reduced interchain cysteines (sites not given)
With B17, in test [2], the “% Cell Viability at 50 nM” value was 3.5% and the “Molt4 IC50” value worked out at 0.156 nM.

B18: CD98 (CL-huAb110)-AAA (antibody, human IgG1, kappa, L234A L235A, V domains shown)
VH: B4 VH with S54D, G55A
VL: B3 VL with S22N, Y31F, S33G, E61Q, V91I, Y100S, G106Q, V110L
modifications: synthon AAA on reduced interchain cysteines (sites not given)
On to B18, for which, in test [2], the “% Cell Viability at 50 nM” value stood at 1.9% and the “Molt4 IC50” value was 0.16 nM.

B19: CD98 (CL-huAb108-ZZ (antibody, human IgG1, kappa, L234A L235A, V domains shown)
VH: B4 VH
VL: B3 VL with S22N, Y31F, S33G, E61Q, V91I, S99D, Y100V, G106Q, V110L
modifications: synthon ZZ on reduced interchain cysteines (sites not given)
For the molecule B19, in test [2], the “% Cell Viability at 50 nM” value was 5.8% and the “Molt4 IC50” value was 0.199 nM.

B20: CD98 (CL-huAb104)-LB (antibody, human IgG1, kappa, L234A L235A, V domains shown)
VH: B3 VH
VL: B3 VL
modifications: synthon LB on reduced interchain cysteines (sites not given)
B20: in test [2], the “% Cell Viability at 50 nM” value was 3.5% and the “Molt4 IC50” value amounted to 0.062 nM.

B21: CD98 (CL-huAb102)-LB (antibody, human IgG1, kappa, L234A L235A, V domains shown)
VH: B3 VH with Y56N, G57R
VL: B3 VL
modifications: synthon LB on reduced interchain cysteines (sites not given)
With B21, in test [2], the “% Cell Viability at 50 nM” value was determined as 14.8% and the “Molt4 IC50” value was 0.053 nM.

B22: CD98 (CL-huAb110)-AAD (antibody, human IgG1, kappa, L234A L235A, V domains shown)
VH: B4 VH with S54D, G55A
VL: B3 VL with S22N, Y31F, S33G, E61Q, V91I, Y100S, G106Q, V110L
modifications: synthon AAD on reduced interchain cysteines (sites not given)
In the case of B22, in test [2], the “% Cell Viability at 50 nM” value is 1.5% and the “Molt4 IC50” value was 0.074 nM.

B23: CD98 (CL-huAb110)-WD (antibody, human IgG1, kappa, L234A L235A, V domains shown)
VH: B4 VH with S54D, G55A
VL: B3 VL with S22N, Y31F, S33G, E61Q, V91I, Y100S, G106Q, V110L
modifications: synthon WD on reduced interchain cysteines (sites not given)
On to B23, for which, in test [2], the “% Cell Viability at 50 nM” value was determined as 10.7% and the “Molt4 IC50” value was 0.226 nM.

B24: CD98 (CL-huAb102)-AAD (antibody, human IgG1, kappa, L234A L235A, V domains shown)
VH: B3 VH with Y56N, G57R
VL: B3 VL
modifications: synthon AAD on reduced interchain cysteines (sites not given)
In the case of B24, in test [2], the “% Cell Viability at 50 nM” value was 2.2% and the “Molt4 IC50” value turned out to be 0.024 nM.

B25: CD98 (CL-huAb108)-AAA (antibody, human IgG1, kappa, L234A L235A, V domains shown)
VH: B4 VH
VL: B3 VL with S22N, Y31F, S33G, E61Q, V91I, S99D, Y100V, G106Q, V110L
modifications: synthon AAA on reduced interchain cysteines (sites not given)
For B25, in test [2], the “% Cell Viability at 50 nM” value turned out to be 2.9% and the “Molt4 IC50” value is 0.18 nM.
